According to patent publication US20090252748A1 (Biogen, published 2009):
Where two headings read alike, the source gives them in different places. Each block holds one binder with its values, some of them ahead of it.

What was measured:
[1] = biological target: T1, full-length human Sp35 with an N-terminal HA tag (lysate of transfected COS-1 cells) (human, UniProt Q96FE5 40-620); test: IP
T1 construct: used here for all IP columns headed huSp35 / hLINGO-1; also called huSp35 (IP); hLINGO-1 (IP)
T1 sequence: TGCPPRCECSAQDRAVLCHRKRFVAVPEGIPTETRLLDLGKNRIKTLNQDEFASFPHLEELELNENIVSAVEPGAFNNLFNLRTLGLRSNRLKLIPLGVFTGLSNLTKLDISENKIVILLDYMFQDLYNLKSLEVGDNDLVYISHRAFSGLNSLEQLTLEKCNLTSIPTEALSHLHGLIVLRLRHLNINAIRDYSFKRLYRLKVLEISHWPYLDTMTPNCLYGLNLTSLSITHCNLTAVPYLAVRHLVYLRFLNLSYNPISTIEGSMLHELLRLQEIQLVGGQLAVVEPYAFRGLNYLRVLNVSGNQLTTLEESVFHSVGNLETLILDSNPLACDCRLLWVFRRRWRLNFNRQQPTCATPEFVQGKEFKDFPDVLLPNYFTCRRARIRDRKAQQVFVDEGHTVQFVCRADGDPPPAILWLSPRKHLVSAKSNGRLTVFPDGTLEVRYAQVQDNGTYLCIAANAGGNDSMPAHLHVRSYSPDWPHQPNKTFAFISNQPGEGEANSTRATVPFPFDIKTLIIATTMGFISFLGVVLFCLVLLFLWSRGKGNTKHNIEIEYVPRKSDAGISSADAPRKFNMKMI

[2] = biological target: T2, human Sp35 protein (ELISA, Western, KD; form not stated) (human, UniProt Q96FE5 40-538, limits assumed); test: ELISA
T2 construct: also called huSp35; hLINGO-1
T2 sequence: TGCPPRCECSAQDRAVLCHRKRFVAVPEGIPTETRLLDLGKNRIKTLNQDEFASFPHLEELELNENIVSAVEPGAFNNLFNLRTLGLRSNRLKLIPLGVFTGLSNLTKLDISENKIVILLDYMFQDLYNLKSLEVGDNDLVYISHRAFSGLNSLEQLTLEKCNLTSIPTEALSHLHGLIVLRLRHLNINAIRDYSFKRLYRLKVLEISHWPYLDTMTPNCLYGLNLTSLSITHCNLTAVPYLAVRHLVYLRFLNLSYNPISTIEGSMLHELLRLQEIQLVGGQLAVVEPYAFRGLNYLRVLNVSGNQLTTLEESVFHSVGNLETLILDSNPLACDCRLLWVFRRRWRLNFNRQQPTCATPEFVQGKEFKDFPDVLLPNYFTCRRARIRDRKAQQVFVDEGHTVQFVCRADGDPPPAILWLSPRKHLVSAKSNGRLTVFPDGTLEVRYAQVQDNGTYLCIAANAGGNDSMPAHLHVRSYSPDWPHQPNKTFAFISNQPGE

[3] = biological target: T2, human Sp35 protein (ELISA, Western, KD; …); test: method not stated
[4] = biological target: T3, mouse Sp35 protein (ELISA, Western, KD; form not stated) (mouse, UniProt Q9D1T0 34-532, limits assumed); test: method not stated
T3 construct: also called mSp35; mLINGO1
T3 sequence (looked up): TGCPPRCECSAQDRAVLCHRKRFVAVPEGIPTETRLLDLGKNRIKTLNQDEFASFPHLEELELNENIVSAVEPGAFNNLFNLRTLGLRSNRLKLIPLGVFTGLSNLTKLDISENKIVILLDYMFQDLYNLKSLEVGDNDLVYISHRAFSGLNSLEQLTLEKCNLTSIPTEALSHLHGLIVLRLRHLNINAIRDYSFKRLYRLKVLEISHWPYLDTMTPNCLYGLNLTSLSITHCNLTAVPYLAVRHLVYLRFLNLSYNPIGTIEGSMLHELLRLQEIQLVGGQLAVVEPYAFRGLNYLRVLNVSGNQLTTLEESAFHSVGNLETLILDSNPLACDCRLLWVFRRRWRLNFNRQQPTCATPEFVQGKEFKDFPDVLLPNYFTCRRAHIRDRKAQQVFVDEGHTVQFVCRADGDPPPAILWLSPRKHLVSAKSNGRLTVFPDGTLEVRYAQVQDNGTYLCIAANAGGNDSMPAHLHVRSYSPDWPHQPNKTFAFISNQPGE

[5] = biological target: T2, human Sp35 protein (ELISA, Western, KD; …); test: method not stated; second figure of the same phrase, inconsistent with the 10 nM already written
[6] = biological target: T1, full-length human Sp35 with an …; test: IP; remark: listed apart in the source
Protocol: To perform the immunoprecipitation, COS-1 cells expressing Sp35, fused to a hemaglutinin (HA) tag on the N-terminus, were produced by transiently transfecting COS-1 cells with a DNA construct which expresses the full-length Sp35 protein with an HA tag. Cells were harvested 48 hr after transfection and were lysed in 1 ml lysis buffer (50 mM HEPES, pH 7.5, 150 mM NaCl, 1.5 mM MgCl₂, 1 mM EGTA, 1% Triton X-100 and 10% glycerol) for 30 min at 4° C. After centrifugation at 14,000×g for 15 min, the supernatants were incubated with ProteinA/G-Sepharose beads (Santa Cruz) at 4° C. for 1 hr, and then incubated at 4° C. for 1 hr with either the 1A7 or the 2F3 anti-Sp35 murine monoclonal antibodies. The beads were washed 3 times with lysis buffer, boiled in Laemmli sample buffer, subjected to 4-20% SDS-PAGE, and analyzed by Western blotting using an antibody which recognizes the HA tag. As shown on the SDS-PAGE gel, monoclonal antibodies 1A7 and 2F3, immunoprecipitated human and murine Sp35 (FIG. 1). […] Similarly, monoclonal antibodies 1G7, 2B10, 2F3, 3P4C2.2D2, 3P4C8.2G9, Li01, Li03, Li05, Li06, Li07, Li08, Li11, Li12, 7P1D5.1G9 and 3B5.2 immunoprecipitate human or mouse or human and mouse Sp35 (See Table 3B and 3C). Additionally, Li08 immunoprecipitates AP-Sp35 and monoclonal antibodies 1B6.4 and 3E3.1 immunoprecipitate endogenous Sp35 (See Table 3B).

[7] = biological target: T4, human Sp35 protein expressed on transfected cells (human, UniProt Q96FE5 40-620); test: FACS
T4 construct: also called huSp35; hLINGO-1
T4 sequence: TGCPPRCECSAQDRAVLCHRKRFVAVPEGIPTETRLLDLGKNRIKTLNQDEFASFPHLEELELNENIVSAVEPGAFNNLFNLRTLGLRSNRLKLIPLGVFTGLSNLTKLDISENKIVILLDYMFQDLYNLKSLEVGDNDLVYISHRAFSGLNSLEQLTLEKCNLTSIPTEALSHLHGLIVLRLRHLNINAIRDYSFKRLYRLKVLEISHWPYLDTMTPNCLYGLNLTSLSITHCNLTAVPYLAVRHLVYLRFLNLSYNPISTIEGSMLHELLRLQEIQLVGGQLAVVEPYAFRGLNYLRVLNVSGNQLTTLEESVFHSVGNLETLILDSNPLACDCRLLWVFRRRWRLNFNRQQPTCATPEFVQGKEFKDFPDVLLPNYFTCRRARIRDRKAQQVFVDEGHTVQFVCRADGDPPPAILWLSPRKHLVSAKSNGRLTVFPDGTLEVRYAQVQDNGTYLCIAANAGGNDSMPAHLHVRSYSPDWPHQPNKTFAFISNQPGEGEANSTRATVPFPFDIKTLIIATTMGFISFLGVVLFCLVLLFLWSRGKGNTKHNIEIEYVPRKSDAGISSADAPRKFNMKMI

B1: 80-D02 (Dli34) Fab (Fab, V domains shown)
VH: EVQLLESGGGLVQPGGSLRLSCAASGFTFSNYEMYWVRQAPGKGLEWVSGIYSSGGITVYADSVKGRFTISRDNSKNTLYLQMNSLRAEDTAVYYCARAAILDWYFDLWGRGTLVTVSS
VL: DIQMTQSPSSLSASVGDRVTITCHASQDISNYLSWYQQKPGKAPKLLIYDAFNLETGVPSRFSGSGSGTDFTFTISSLQPEDFATYYCQHYDNLPFTFGPGTRVAIR
notes: human
- binding result [1]: binds
- binding result [2]: binds

B2: 1A7 monoclonal antibody (antibody, mouse IgG1, V domains shown)
VH: QVQLVQSGPELKKPGETVKISCKASGYTFTNYGMNWVKQAPGKGLKWMGWINTDTGEPTYTEDFQGRFAFSLETSASTVYLQFNNLKNEDTATYFCAREGVHFDYWGQGTTVTVSS
VL: QIVLTQSPAIMSASPGEKVTMTCSASSSVSYMHWYQQKSGTSPKRWIYDTSKLASGVPARFSGSGSGTSYSLTISSMEAEDAATYYCQQWSSNPFTFGSGTKLEIK
notes: murine IgG1/kappa; also called P1A7; 1A7 mAb
- Kd [3]: 10 nM
- Kd [4]: 20000 nM
- Kd [5]: 1 nM

Further lines, results first:

- binding result [2]: binds
B3: 79-G02 (Dli32) Fab (Fab, V domains shown)
VH: EVQLLESGGGLVQPGGSLRLSCAASGFTFSAYMMQWVRQAPGKGLEWVSSISPSGGNTKYADSVKGRFTISRDNSKNTLYLQMNSLRAEDTAVYYCARGDYGYWFDPWGQGTLVTVSS
VL: DIQMTQSPDSLSASVGDRVTITCQASQDISYYLNWYQQKPGMAPKLLIYDAFILEGGAPSRFSGSGSGTDFSFTISNLQPEDIATYFCQQSDQLPVTFGQGTKVEIR
notes: human

- binding result [6]: binds
- binding result [7]: binds
- binding result [2]: binds
B4: 30-B01 (Li11) Fab (Fab, V domains shown)
VH: EVQLLESGGGLVQPGGSLRLSCAASGFTFSSYAMYWVRQAPGKGLEWVSSISTSGGYTGYADSVKGRFTISRDNSKNTLYLQMNSLRAEDTAVYYCARDTSDNDYYYMDVWGKGTTVTVSS
VL: DIQMTQSPSSVSAPIGDRVTITCRASQEIANYLAWYQQKPGKAPKLLIYDTYTLQTDVPPRFSGSGSGTDFTLTISSLQPEDTATYFCQQADIFPLSFGGGTKVEIK
notes: human, kappa; also called Dli11; Li011
